This test addresses T1, recombinant human calmodulin (CALM) 1/2/3 (human, UniProt P0DP23 1-149).
T1 construct: human calmodulin, printed as calmodulin (CALM) 1/2/3; also called His-tagged CALM; source: bought: Abcam; not shown: His tag, N-terminal, kept
Kind of test: pull-down; hAPP SP (9–17) 500 nM mixed with N-terminally His-tagged CALM 1 μg/mL in xTractor buffer, with or without CaCl2 500 μM, overnight at 4 °C; CALM separated on a Capturem His-Tagged Purification Miniprep; bound peptides read by MALDI-TOF MS/MS. The note with it: both partners purified.

B1: hAPP SP (9–17) (peptide)
peptide: LLAAWTARA
notes: residues 9-17 of the signal peptide of human amyloid precursor protein (APP); also called C-terminal fragment of APP SP; source: synthetic peptide, bought: Eurofins Scientific
Turning to B1, the binding result was “binds”.

B2: C-terminal fragment of APP SP (LAAWTARA) (peptide)
peptide: LAAWTARA
notes: stretch of the signal peptide of human amyloid precursor protein (APP), one residue shorter than hAPP SP (9–17); also called exosomal SP fragment
Turning to B2, the binding result is “binds”.

The values above are taken from publication PMC8950404, “Signal Sequence-Dependent Orientation of Signal Peptide Fragments to Exosomes” (International Journal of Molecular Sciences, 2022).
